From US20240279356A1 (Xencor, published 2024)
Values belong to the binder of their own block, whether it stands above or below them.

Tests used:
[1] = biological target: T1, MSLN on OVCAR8 (MSLN^high) and other cancer cell lines (UniProt Q13421 296-598); test: flow cytometry on OVCAR8 cells, detected with A647-labelled anti-human Fc mAb
T1 construct: whole, on cells; Endogenous surface MSLN; also called MSLN^high OVCAR8 cells; MSLN^low SKOV3 and HT29 cells
Method: Next, the effect of MSLN binding affinity was investigated. 100,000 OVCAR8 (MSLN^high) cells were treated with the indicated concentrations of the indicated test articles. […] Further, XENP32852 and XENP32853 which differ only in CD3 binding affinity have identical binding to OVCAR8 cells confirming that avid binding is due to the MSLN binding domain.

[2] = biological target: T2, human MSLN antigen (human, UniProt Q13421 296-580, limits assumed); test: Octet BLI on human MSLN antigen (Example 2B(a)); KD quoted in the FIG. 35 legend
T2 construct: Soluble antigen for BLI; also called Mesothelin; MESO
Excerpt: (§1) Variants of MESO-C were engineered by introducing point substitutions into the variable heavy region (VH) and the variable light region (VL) to generate 11 VH variants and 16 VL variants (sequences for which are depicted in FIG. 18 as H1.1-H1.13 and in FIG. 19 as L1.1-L1.18). An additional 4 VL variants were generated by combining useful point substitutions (sequences for which are depicted in FIG. 19 as L1.19-L1.22). WT and variant variable heavy regions were paired with WT and variant variable light regions to generate variant variable regions (Fvs) which were produced in the context of anti-MSLN×anti-CD3 bispecific antibodies. The bispecific antibodies were screened for MSLN binding affinity using Octet®, a BioLayer Interferometry (BLI)-based method. Experimental steps for Octet® generally include the following: Immobilization (capture of ligand to a biosensor); Association (dipping of ligand-coated biosensors into wells containing the analyte); and Dissociation (returning of biosensors to well containing buffer). In an initial screening, anti-human Fc sensors were used to capture the bispecific mAbs and dipped into human MSLN antigen (one concentration to screen large library). The resulting dissociation constant of illustrative variants (KD), association rate (kₐ), dissociation rate (kd), as well as sensorgram response are depicted in FIG. 20. In further screening of favorite variants identified in the initial screen (and combination variants), bispecific mAbs were dipped into multiple concentrations of human MSLN antigen, data for which are depicted in FIG. 21 (from various screens).

[3] = biological target: T3, cyno MSLN (Macaca fascicularis (cynomolgus)); test: Octet BLI; bsAb on anti-human Fc sensor, cyno MSLN as analyte, one concentration
T3 construct: soluble antigen for Octet; also called cynomolgus MSLN

[4] = biological target: T2, human MSLN antigen; test: Octet BLI; bsAb on anti-human Fc sensor, human MSLN as analyte, one concentration
Excerpt: as §1

[5] = biological target: T2, human MSLN antigen; test: Octet BLI; bsAb on anti-human Fc sensor, human MSLN as analyte, several concentrations
Excerpt: as §1

T2 sequence (Q13421 other isoform, or with tags, fused parts or gaps limits assumed): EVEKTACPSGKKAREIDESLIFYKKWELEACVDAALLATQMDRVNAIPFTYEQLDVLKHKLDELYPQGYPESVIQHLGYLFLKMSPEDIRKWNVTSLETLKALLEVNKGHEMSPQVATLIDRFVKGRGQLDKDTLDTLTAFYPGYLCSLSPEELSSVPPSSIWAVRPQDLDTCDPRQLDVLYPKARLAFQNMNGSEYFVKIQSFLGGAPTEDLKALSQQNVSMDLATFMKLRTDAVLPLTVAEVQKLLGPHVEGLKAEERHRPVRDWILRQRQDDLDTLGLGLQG
T1 sequence (Q13421 other isoform, or with tags, fused parts or gaps limits assumed): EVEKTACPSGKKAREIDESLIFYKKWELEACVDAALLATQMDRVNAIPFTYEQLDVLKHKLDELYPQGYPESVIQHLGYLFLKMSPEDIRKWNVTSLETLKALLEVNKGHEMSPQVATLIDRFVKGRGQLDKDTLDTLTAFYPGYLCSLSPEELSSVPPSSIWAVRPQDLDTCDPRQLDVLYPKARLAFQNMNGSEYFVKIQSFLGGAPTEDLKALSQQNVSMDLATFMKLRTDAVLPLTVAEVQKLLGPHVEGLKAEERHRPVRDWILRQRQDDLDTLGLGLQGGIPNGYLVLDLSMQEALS

- EC50 (read off the curve) [1]: ~0.07 µg/mL
- Kd [2]: 0.28 nM
B1: XENP31697 (bispecific antibody)
heavy: QVQLVQSGAEVKKPGASVKVSCKASGYTFTSYWMHWVRQAPGQGLEWMGMIHPNSDNTIYYEKFQGRVTMTVDKSISTAYMELSRLRSDDTAVYYCAIIITPVVPKFDYWGQGTLVTVSSASTKGPSVFPLAPSSKSTSGGTAALGCLVKDYFPEPVTVSWNSGALTSGVHTFPAVLQSSGLYSLSSVVTVPSSSLGTQTYICNVNHKPSDTKVDKKVEPKSCDKTHTCPPCPAPPVAGPSVFLFPPKPKDTLMISRTPEVTCVVVDVKHEDPEVKFNWYVDGVEVHNAKTKPREEEYNSTYRVVSVLTVLHQDWLNGKEYKCKVSNKALPAPIEKTISKAKGQPREPQVYTLPPSREEMTKNQVSLTCDVSGFYPSDIAVEWESDGQPENNYKTTPPVLDSDGSFFLYSKLTVDKSRWEQGDVFSCSVMHEALHNHYTQKSLSLSPGK
scFv-Fc: not shown
light: DIVMTQSPDSLAVSLGERATINCKASHDVGTSVAWYQQKPGQSPKLLIYWASTRHTGVPDRFTGSGSGTDFTLTISSLQAEDVAVYFCQQYSSYPLTFGAGTKLEIKRTVAAPSVFIFPPSDEQLKSGTASVVCLLNNFYPREAKVQWKVDNALQSGNSQESVTEQDSKDSTYSLSSTLTLSKADYEKHKVYACEVTHQGLSSPVTKSFNRGEC
notes: 1+1 Fab-scFv-Fc anti-MSLN x anti-CD3

- Kd [2]: 10.2 nM
B2: XENP32948 (bispecific antibody)
heavy: QVQLVQSGAEVKKPGASVKVSCKASGYTFTSYWMHWVRQAPGQGLEWMGMIHPNSDNTIYYQKFQGRVTMTVDKSISTAYMELSRLRSDDTAVYYCAIIITPVVPKFDYWGQGTLVTVSSASTKGPSVFPLAPSSKSTSGGTAALGCLVKDYFPEPVTVSWNSGALTSGVHTFPAVLQSSGLYSLSSVVTVPSSSLGTQTYICNVNHKPSDTKVDKKVEPKSCDKTHTCPPCPAPPVAGPSVFLFPPKPKDTLMISRTPEVTCVVVDVKHEDPEVKFNWYVDGVEVHNAKTKPREEEYNSTYRVVSVLTVLHQDWLNGKEYKCKVSNKALPAPIEKTISKAKGQPREPQVYTLPPSREEMTKNQVSLTCDVSGFYPSDIAVEWESDGQPENNYKTTPPVLDSDGSFFLYSKLTVDKSRWEQGDVFSCSVMHEALHNHYTQKSLSLSPGK
Fab-scFv-Fc: QVQLVQSGAEVKKPGASVKVSCKASGYTFTSYWMHWVRQAPGQGLEWMGMIHPNSDNTIYYQKFQGRVTMTVDKSISTAYMELSRLRSDDTAVYYCAIIITPVVPKFDYWGQGTLVTVSSASTKGPSVFPLAPSSKSTSGGTAALGCLVKDYFPEPVTVSWNSGALTSGVHTFPAVLQSSGLYSLSSVVTVPSSSLGTQTYICNVNHKPSNTKVDKKVEPKSCGGGGSGGGGSQAVVTQEPSLTVSPGGTVTLTCGSSTGAVTTSNYANWVQQKPGKSPRGLIGGTNKRAPGVPARFSGSLLGGKAALTISGAQPEDEADYYCALWYSNHWVFGGGTKLTVLGKPGSGKPGSGKPGSGKPGSEVQLVESGGGLVQPGGSLRLSCAASGFTFSTYAMNWVRQAPGKGLEWVGRIRSKANNYATYYADSVKGRFTISRDDSKNTLYLQMNSLRAEDTAVYYCVRHGNFGDSYVSWFAYWGQGTLVTVSSGGGGSGGGGSKTHTCPPCPAPPVAGPSVFLFPPKPKDTLMISRTPEVTCVVVDVKHEDPEVKFNWYVDGVEVHNAKTKPREEQYNSTYRVVSVLTVLHQDWLNGKEYKCKVSNKALPAPIEKTISKAKGQPREPQVYTLPPSREQMTKNQVKLTCLVKGFYPSDIAVEWESNGQPENNYKTTPPVLDSDGSFFLYSKLTVDKSRWQQGNVFSCSVMHEALHNHYTQKSLSLSPGK
light: DIVMTQSPDSLAVSLGERATINCKASHDVGTSVAWYQQKPGQSPKLLIYWASTRHTGVPDRFTGSGSGTDFTLTISSLQAEDVAVYFCQQYYSYPLTFGAGTKLEIKRTVAAPSVFIFPPSDEQLKSGTASVVCLLNNFYPREAKVQWKVDNALQSGNSQESVTEQDSKDSTYSLSSTLTLSKADYEKHKVYACEVTHQGLSSPVTKSFNRGEC
notes: 2+1 Fab2-scFv-Fc

- Kd [2]: 9.2 nM
B3: XENP32947 (bispecific antibody)
heavy 1: QVQLVQSGAEVKKPGASVKVSCKASGYTFTSYWMHWVRQAPGQGLEWMGWIHPNSDNTIYYEKFQGRVTMTVDKSISTAYMELSRLRSDDTAVYYCAIIITPVVPKFDYWGQGTLVTVSSASTKGPSVFPLAPSSKSTSGGTAALGCLVKDYFPEPVTVSWNSGALTSGVHTFPAVLQSSGLYSLSSVVTVPSSSLGTQTYICNVNHKPSDTKVDKKVEPKSCDKTHTCPPCPAPPVAGPSVFLFPPKPKDTLMISRTPEVTCVVVDVKHEDPEVKFNWYVDGVEVHNAKTKPREEEYNSTYRVVSVLTVLHQDWLNGKEYKCKVSNKALPAPIEKTISKAKGQPREPQVYTLPPSREEMTKNQVSLTCDVSGFYPSDIAVEWESDGQPENNYKTTPPVLDSDGSFFLYSKLTVDKSRWEQGDVFSCSVMHEALHNHYTQKSLSLSPGK
heavy 2: QVQLVQSGAEVKKPGASVKVSCKASGYTFTSYWMHWVRQAPGQGLEWMGWIHPNSDNTIYYEKFQGRVTMTVDKSISTAYMELSRLRSDDTAVYYCAIIITPVVPKFDYWGQGTLVTVSSASTKGPSVFPLAPSSKSTSGGTAALGCLVKDYFPEPVTVSWNSGALTSGVHTFPAVLQSSGLYSLSSVVTVPSSSLGTQTYICNVNHKPSNTKVDKKVEPKSCGGGGSGGGGSQAVVTQEPSLTVSPGGTVTLTCGSSTGAVTTSNYANWVQQKPGKSPRGLIGGTNKRAPGVPARFSGSLLGGKAALTISGAQPEDEADYYCALWYSNHWVFGGGTKLTVLGKPGSGKPGSGKPGSGKPGSEVQLVESGGGLVQPGGSLRLSCAASGFTFSTYAMNWVRQAPGKGLEWVGRIRSKANNYATYYADSVKGRFTISRDDSKNTLYLQMNSLRAEDTAVYYCVRHGNFGDSYVSWFAYWGQGTLVTVSSGGGGSGGGGSKTHTCPPCPAPPVAGPSVFLFPPKPKDTLMISRTPEVTCVVVDVKHEDPEVKFNWYVDGVEVHNAKTKPREEQYNSTYRVVSVLTVLHQDWLNGKEYKCKVSNKALPAPIEKTISKAKGQPREPQVYTLPPSREQMTKNQVKLTCLVKGFYPSDIAVEWESNGQPENNYKTTPPVLDSDGSFFLYSKLTVDKSRWQQGNVFSCSVMHEALHNHYTQKSLSLSPGK
light: DIVMTQSPDSLAVSLGERATINCKASHDVGTSVAWYQQKPGQSPKLLIYWASTRHTGVPDRFTGSGSGTDFTLTISSLQAEDVAVYFCQQYSSYPLTFGAGTKLEIKRTVAAPSVFIFPPSDEQLKSGTASVVCLLNNFYPREAKVQWKVDNALQSGNSQESVTEQDSKDSTYSLSSTLTLSKADYEKHKVYACEVTHQGLSSPVTKSFNRGEC
notes: 2+1 Fab2-scFv-Fc; copies: 1 + 1 + 2

- Kd [3]: 13.1 nM
- Response [3]: 0.817
- koff [3]: 0.00713 s⁻¹
- kon [3]: 543000 M⁻¹ s⁻¹
- Response [4]: 0.898
- koff [4]: 0.00672 s⁻¹
- kon [4]: 527000 M⁻¹ s⁻¹
- Kd [2]: ~12.8 nM
B4: XENP32563 (bispecific antibody)
heavy: QVQLVQSGAEVKKPGASVKVSCKASGYTFTSYWMHWVRQAPGQGLEWMGMIHPNSDNTIYYEKFQGRVTMTVDKSISTAYMELSRLRSDDTAVYYCAIIITPVVPKFDYWGQGTLVTVSSASTKGPSVFPLAPSSKSTSGGTAALGCLVKDYFPEPVTVSWNSGALTSGVHTFPAVLQSSGLYSLSSVVTVPSSSLGTQTYICNVNHKPSDTKVDKKVEPKSCDKTHTCPPCPAPPVAGPSVFLFPPKPKDTLMISRTPEVTCVVVDVKHEDPEVKFNWYVDGVEVHNAKTKPREEEYNSTYRVVSVLTVLHQDWLNGKEYKCKVSNKALPAPIEKTISKAKGQPREPQVYTLPPSREEMTKNQVSLTCDVSGFYPSDIAVEWESDGQPENNYKTTPPVLDSDGSFFLYSKLTVDKSRWEQGDVFSCSVMHEALHNHYTQKSLSLSPGK
scFv-Fc: not shown
light: DIVMTQSPDSLAVSLGERATINCKASHDVGTYVAWYQQKPGQSPKLLIYWASTRHTGVPDRFTGSGSGTDFTLTISSLQAEDVAVYFCQQYSSYPLTFGAGTKLEIKRTVAAPSVFIFPPSDEQLKSGTASVVCLLNNFYPREAKVQWKVDNALQSGNSQESVTEQDSKDSTYSLSSTLTLSKADYEKHKVYACEVTHQGLSSPVTKSFNRGEC
notes: 1+1 Fab-scFv-Fc

- Response [5]: 0.183
- koff [5]: 0.00822 s⁻¹
- kon [5]: 803000 M⁻¹ s⁻¹
- Kd [2]: 10.2 nM
B5: XENP32937 (bispecific antibody)
heavy: QVQLVQSGAEVKKPGASVKVSCKASGYTFTSYWMHWVRQAPGQGLEWMGMIHPNSDNTIYYQKFQGRVTMTVDKSISTAYMELSRLRSDDTAVYYCAIIITPVVPKFDYWGQGTLVTVSSASTKGPSVFPLAPSSKSTSGGTAALGCLVKDYFPEPVTVSWNSGALTSGVHTFPAVLQSSGLYSLSSVVTVPSSSLGTQTYICNVNHKPSDTKVDKKVEPKSCDKTHTCPPCPAPPVAGPSVFLFPPKPKDTLMISRTPEVTCVVVDVKHEDPEVKFNWYVDGVEVHNAKTKPREEEYNSTYRVVSVLTVLHQDWLNGKEYKCKVSNKALPAPIEKTISKAKGQPREPQVYTLPPSREEMTKNQVSLTCDVSGFYPSDIAVEWESDGQPENNYKTTPPVLDSDGSFFLYSKLTVDKSRWEQGDVFSCSVMHEALHNHYTQKSLSLSPGK
scFv-Fc: not shown
light: DIVMTQSPDSLAVSLGERATINCKASHDVGTSVAWYQQKPGQSPKLLIYWASTRHTGVPDRFTGSGSGTDFTLTISSLQAEDVAVYFCQQYYSYPLTFGAGTKLEIKRTVAAPSVFIFPPSDEQLKSGTASVVCLLNNFYPREAKVQWKVDNALQSGNSQESVTEQDSKDSTYSLSSTLTLSKADYEKHKVYACEVTHQGLSSPVTKSFNRGEC
notes: 1+1 Fab-scFv-Fc
